Reference: US8633026B2, “Cytokine induction of selectin ligands on cells” (priority 2006, dated 2014)

B1: G-CSF: recombinant human granulocyte colony stimulating factor (Amgen), cytokine (protein, UniProt P09919 31-207, looked up)
Granulocyte …: TPLGPASSLPQSFLLKCLEQVRKIQGDGAALQEKLVSECATYKLCHPEELVLLGHSLGIPWAPLSSCPSQALQLAGCLSQLHSGLFLYQGLLQALEGISPELGPTLDTLQLDVADFATTIWQQMEELGMAPALQPTQGAMPAFASAFQRRAGGVLVASHLQSFLEVSYRVLRHLAQP

How the values were obtained:
[1] = test system: CD15; experiment: CD15 expression by flow cytometry after G-CSF treatment with or without DANA; format: cell-based, human; conditions: for expression of CD15: 10 ng/ml G-CSF, 72 hr
Description: Bone marrow cells were treated with 10 ng/mL of G-CSF for 5 days in the presence or absence of 100 mM DANA and expression of CD15 was analyzed by flow cytometry.
(§1) Aliquots of ˜2-5×10^5 cells were washed with PBS, 2% FBS and incubated with primary mAbs. Subsequently, the cells were washed and incubated with species and isotype matched FITC- or PE-labeled polyclonal antibodies. Following this incubation, the cells were washed and FITC or PE fluorescence of cells was determined using a Cytomics FC 500 MPL flow cytometer (Beckman Coulter Inc., Fullerton, Calif.).
(§2) Freshly isolated BM cells were separated into early immature (Band 1), late immature (Band 2) and mature (Band 3) myeloid fractions.

[2] = test system: endothelial E-selectin; experiment: Parallel plate flow chamber adhesion of G-CSF-treated Band 2 cells on stimulated HUVEC; format: cell-based, human; conditions: 72 hr G-CSF, 1.5 dyne/cm^2, IL-1β-stimulated HUVEC
Description: FIGS. 12A-B illustrates G-CSF treatment enhances the capability of human BM cells to adhere to endothelial E-selectin under physiologic flow conditions. HUVEC were stimulated with IL-1β for 4-6 hrs. Subsequently, untreated or 72 hr. G-CSF-treated Band 2 cells were perfused over HUVEC at 1.5 dyne/cm^2. In certain instances, stimulated HUVEC were pretreated with a mAb to E-selectin prior to use in adhesion assays. […]
(§3) A tissue culture dish containing confluent HUVEC monolayer or CHO cells was loaded into a parallel plate flow chamber (Glycotech; Gaithersburg, Md.). […] Primary tethering^49 was determined by quantifying the number of ML or NL that attached (i.e., interacted) from the free stream directly onto HUVEC monolayer or CHO cells during the first 2 minutes of flow. Secondary attachments (i.e., flowing leukocytes interacting with an already adherent leukocyte on HUVEC monolayer or CHO cells) or leukocytes that rolled into the field of observation from the upstream region were not counted. Average rolling velocity, a quantitative measure of selectin binding strength, was computed (using Scion Image) as the displacement by the centroid of the cell divided by the time interval of observation, 5 sec.

[3] = test system: Hcell and HECA-452-reactive ˜65 kDa glycoprotein on human BM cells; experiment: In vitro G-CSF treatment of human BM cells, HECA-452 and E-Ig Western blots; format: cell-based
Description: Normal human bone marrow (BM) cells were isolated from human BM harvest material (Massachusetts General Hospital, Boston, Mass.). Red cells were separated using dextran sedimentation method. The leukocyte-rich supernatant was subjected to a two-step discontinuous Percoll (Amersham Pharmacia Biotech; Piscataway, N.J.) density gradient centrifugation (1.065 g/ml and 1.080 g/ml; 1000 g for 20 min at 4° C.). […] The cells with least density found at the upper band (“Band 1”) contained early immature cells (myeloblasts and promyelocytes), “Band 2” contained late immature cells (primarily myelocytes and metamyelocytes), and “Band 3” contained the most mature leukocytes (predominantly band and segmented neutrophils) as well as some contaminating red cells, which were subsequently removed by hypotonic lysis. The cells in different bands were collected, washed and used for further studies. In some instances, BM mononuclear cells (BM-MNC) were isolated by Ficoll-Hypaque density gradient centrifugation. CD34+/lineage—subpopulation was isolated from BM-MNC using a negative cell selection StemSep™ human progenitor enrichment cocktail (Stem Cell Technologies Inc.); CD34+ cells were then further isolated by positive selection using anti-CD34 immunomagnetic beads (Miltenyi Biotech.), routinely resulting in populations of >98% CD34+ cells.
Membrane proteins of purified ML-M, ML-G, PMN, or PBMC were isolated as described previously^28,39. Membrane protein suspensions were aliquoted and stored at −20° C. For SDS-PAGE and Western blotting, membrane preparations were diluted in reducing sample buffer, boiled and then separated on 4-20% or 7.5% Criterion Tris-HCl SDS-PAGE gels (Bio-Rad Laboratories). Resolved membrane proteins were transferred to Sequi-blot polyvinylidene diflouride (PVDF) membrane (Bio-Rad Laboratories) and blocked with heat inactivated FBS. Blots were incubated with primary antibodies or E-Ig (each at 1 μg/ml). Appropriate isotype control immunoblots (each at 1 μg/ml) were performed in parallel to evaluate nonspecific binding to protein bands. […]

[4] = test system: E-selectin ligands on circulating leukocytes; experiment: Clinical collections of leukocytes mobilized by G-CSF administration (ML); format: in vivo, human
Description: Materials: G-CSF mobilized peripheral blood (MPB) was obtained from pheresis products of donors for clinical HSCT at Brigham and Women's Hospital/Dana Farber Cancer Institute (Boston, Mass.). G-CSF MPB leukocytes (ML) were isolated from buffy coat of dextran sedimentated whole blood, followed by hypotonic lysis to remove contaminating red cells. Mononuclear fraction of these cells (ML-M) was isolated by Ficoll-Hypaque (1.077 g/ml; Sigma Aldrich) density gradient centrifugation. Native (unmobilized) peripheral blood was obtained from consenting healthy volunteers, and NL (buffy coat) were isolated using dextran sedimentation as for ML. Peripheral blood mononuclear cells (PBMC) were isolated by Ficoll-Hypaque density gradient centrifugation. Polymorphonuclear leukocytes (PMN) were isolated by dextran sedimentation followed by collecting the cell pellet after Ficoll-Hypaque density gradient centrifugation. Contaminated red cells were removed by hypotonic lysis.
as §3, with “sec. […]” for “sec.”
Aliquots of ˜2-5×10^5 cells were washed with PBS, 2% FBS and incubated with primary mAbs. […] Following this incubation, the cells were washed and FITC or PE fluorescence of cells was determined using a Cytomics FC 500 MPL flow cytometer (Beckman Coulter Inc., Fullerton, Calif.).

[5] = test system: Fuct-IX; experiment: FucT-IX expression after in vitro G-CSF treatment; format: cell-based, human; conditions: normal progenitors and mobilized peripheral blood, 10 ng/ml G-CSF, 72 hr
Description: Lane 1 are normal cells isolated from bone marrow from healthy donor. Lane 2 are G-CSF treated normal progenitors isolated from bone marrow from healthy donor. Lane 3 are untreated cells isolated from G-CSF mobilized blood. Lane 4 are G-CSF treated cells isolated from G-CSF mobilized blood.
CD15 plays a role in innate immunity in priming dendritic cells. Moreover, FTIX fucosylates internal lactosamine units yielding the VIM-2 epitope. While, the VIM-2 is not sLex, but it consists of a terminal sialic acid with an “internal fucosylation” that can function as an E-selectin ligand

[6] = test system: ST3GalIV, FucT-IV and FucT-VII; experiment: RT-PCR of glycosyltransferases in G-CSF-treated Band 2 BM cells; format: cell-based; conditions: immature human BM cells (Band 2), 10 ng/ml G-CSF, 72 hr
Description: ID NO:1) and antisense [NT] NO:2); FucT-VII, sense [NT] ID NO:3) and antisense [NT] ID NO:4); FucT-IV, sense […] NO:5) and antisense […] NO:6); GAPDH sense [NT] ID NO:8) and antisense [NT] ID NO:9).

[7] = test system: L-selectin; experiment: Flow cytometry of L-selectin on G-CSF-treated BM cells; format: cell-based, human; conditions: in vitro, 10 ng/ml G-CSF, 72 hr
Description: as §1

[8] = test system: sialidase; experiment: Sialidase expression/activity after G-CSF treatment of human myeloid cells; format: cell-based
Description: as §2

[9] = multiple clinical ML collections, G-CSF administration

G-CSF-induced increase in CD15 under sialidase inhibition ([1]; bone marrow cells, 10 ng/mL G-CSF for 5 days, 100 mM DANA, flow cytometry) | G-CSF-induced increase of CD15 under sialidase inhibition ([1]; late mature bone marrow and leukocytes, G-CSF-treated) | Molecule | E-selectin binding (primary tethering, rolling velocity on stimulated HUVEC) [2] | expression of Hcell and the HECA-452-reactive ˜65 kDa glycoprotein ([3]; 10 ng/ml G-CSF, 72 hr, 37° C., predominantly immature Band 1 and Band 2 human BM cells) | HCELL induction on lymphocytes ([3]; lymphocytes in BM or in blood) | inducing HCELL expression among mature myeloid BM cells ([3]; mature myeloid BM cells) | surface L-selectin expression on circulating leukocytes ([4]; following G-CSF administration, flow cytometry) | E-selectin ligand activity of circulating leukocytes [4, 9] | expression of the E-selectin ligands HCELL and the HECA-452-reactive ˜65 kDa glycoprotein [4, 9] | Fuct-IX expression [5] | expression levels of ST3GalIV, FucT-IV and FucT-VII [6] | expression of CD15 ([1]; early immature bone marrow) | expression of CD15 ([1]; late mature bone marrow and leukocytes) | L-selectin expression on G-CSF treated cells relative to untreated cells [7] | expression of sialidase ([8]; bone marrow and leukocytes, 10 ng/ml G-CSF, 72 hr) | sialidase activity ([8]; human myeloid bone marrow cells, 10 ng/mL G-CSF, 24 hours, 4-MU-NANA substrate)
blunts G-CSF-induced increase in CD15 | could be prevented | CC(=O)N[C@H]1[C@H]([C@H](O)[C@H](O)CO)OC(C(=O)O)=C[C@@H]1O [DANA, 2-deoxy-2,3-dehydro-N-acetyl-neuraminic acid, reference compound] | – | – | – | – | – | – | – | – | – | – | – | – | – | –
– | – | B1 | enhanced E-selectin binding | up-regulation in expression | not induced | only a variable effect | marked decrease in surface L-selectin expression | uniformly increased E-selectin ligand activity | upregulated the expression | increases Fuct-IX expression | increases in expression levels | did not has an effect | increased expression of CD15 | down-regulation of L-selectin expression | increase expression of sialidase | increases sialidase activity
